Km, Vmax and kcat data for one protein are collected here from paper PMC6031081, “A Novel UDP-Glycosyltransferase of Rhodiola crenulata Converts Tyrosol to Specifically Produce Icariside D2” (BioMed Research International, 2018).

Substrate in this data set: OCCc1ccc(O)cc1
Briefly: purified protein. The format is biochemical, Rhodiola crenulata. Particulars: UDP-glucose co-substrate (2 mM), tyrosol varied 0.5-5 mM, 50 mM Tris-HCl, pH 8.6, 30°C, 30 min.

B1: RcUGT1 (Rhodiola crenulata) (protein)
chain: MDSDSRPLRVFFFPFMAHGHLIPMVDIARLFSSQGVHSTIITTPLNANYISKTTSLSIKTLPFQASKVGLPDGCENVDMLPSPDLIFKFFQAANLLQKPFENLLELEKPDCLISDIFFPWSVDSAGKFNIPRLVFHGTSFFAMCAMESLKTHKPYKSVSTDSEPFVIPNLPDEIKMTKSQFTVDAWEDTEKGVGKLLADARASGLRSFGVVVNSFYELEPAYADYYKNVLNMKAWCVGPVSVCYRNDEEKIARGKKSAIDDHECLKWLEGKQPDSVVYVCFGSGASFPDEQLRDIALGLEDSGVNFIWVIRRSSESGSEDYLPEGFEDRVEGSGLVIRGWAPQVLILDHPSVGGFVTHCGWNSALEGISAGLPMVTWPLFAEQFFNQKLITDVLKIGVEVGVQKWSRNGEDRVTKEKVEKAVRAVMVGEVAEERRGRARQLGKLAKNAAAKDGSSFIDLHNLLDELKLRRVPLS
notes: 6xHis tag (pQE30), E. coli M15, Ni-NTA purified; primers encode ends MDSDSRP...RRVPLS
One may read the Km as the concentration of substrate that gives half-maximal velocity. The Vmax is the top rate of the reaction or transport when substrate is in excess. Usually kcat stands for the number of substrate molecules converted per active site and unit of time at saturation. Consider B1, for which the Km worked out at 972.75 ± 104.31 µM, the Vmax was determined as 0.0172 µmol/min/mg and the kcat was 0.0155 ± 0.00044 s⁻¹.
